Experimental data from patent US20200115430A1 (I2O THERAPEUTICS, published 2020).
Starred links: 1 amine or outer side, 2 acyl side, 3 side chain; linkers in the order of their positions; H or OH if unused. Positions of bridges follow the written chain, without caps; N, C: chain ends. Non-standard residues stand in square brackets, D forms with d. Groups on a side chain read outwards from the residue. Primed or numbered codes have the meaning given here. No end group written: not given here. *: point of attachment. dpeg″ = —[CO(CH2)O(CH2)2O(CH2)NH]— spacer unit, O=C(COCCOCN[*:1])[*:2]; C20 diacid = O=C(O)CCCCCCCCCCCCCCCCCCC(=O)*; C18 diacid = O=C(O)CCCCCCCCCCCCCCCCC(=O)*; γGlu = O=C(O)[C@H](CCC(=O)[*:2])N[*:1]; Stearoyl = CCCCCCCCCCCCCCCCCC(=O)*

How the values were obtained:
human amylin 3 receptor = molecular target: T1, human amylin 3 receptor (human, UniProt P30988 25-474; O60896 24-148); assay: cell-based or functional assay
T1 sequence (looked up) 1: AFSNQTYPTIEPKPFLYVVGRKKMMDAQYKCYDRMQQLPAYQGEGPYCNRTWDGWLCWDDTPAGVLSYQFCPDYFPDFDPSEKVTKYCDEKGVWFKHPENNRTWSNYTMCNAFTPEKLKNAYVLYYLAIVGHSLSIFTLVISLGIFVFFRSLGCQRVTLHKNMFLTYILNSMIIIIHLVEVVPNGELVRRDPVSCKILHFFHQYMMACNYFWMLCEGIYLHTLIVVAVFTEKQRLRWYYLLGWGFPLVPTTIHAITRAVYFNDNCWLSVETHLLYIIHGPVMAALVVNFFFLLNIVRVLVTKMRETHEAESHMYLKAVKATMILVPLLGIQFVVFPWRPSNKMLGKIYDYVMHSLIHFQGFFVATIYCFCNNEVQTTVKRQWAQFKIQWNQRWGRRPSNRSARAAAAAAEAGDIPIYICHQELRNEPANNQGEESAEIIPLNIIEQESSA
T1 sequence (looked up) 2: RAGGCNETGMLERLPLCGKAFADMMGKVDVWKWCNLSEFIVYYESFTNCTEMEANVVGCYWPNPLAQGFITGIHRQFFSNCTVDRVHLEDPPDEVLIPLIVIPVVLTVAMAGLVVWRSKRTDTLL

[1] = molecular target: T2, human calcitonin receptor (human, UniProt P30988 25-474); assay: cell-based or functional assay
T2 sequence (looked up): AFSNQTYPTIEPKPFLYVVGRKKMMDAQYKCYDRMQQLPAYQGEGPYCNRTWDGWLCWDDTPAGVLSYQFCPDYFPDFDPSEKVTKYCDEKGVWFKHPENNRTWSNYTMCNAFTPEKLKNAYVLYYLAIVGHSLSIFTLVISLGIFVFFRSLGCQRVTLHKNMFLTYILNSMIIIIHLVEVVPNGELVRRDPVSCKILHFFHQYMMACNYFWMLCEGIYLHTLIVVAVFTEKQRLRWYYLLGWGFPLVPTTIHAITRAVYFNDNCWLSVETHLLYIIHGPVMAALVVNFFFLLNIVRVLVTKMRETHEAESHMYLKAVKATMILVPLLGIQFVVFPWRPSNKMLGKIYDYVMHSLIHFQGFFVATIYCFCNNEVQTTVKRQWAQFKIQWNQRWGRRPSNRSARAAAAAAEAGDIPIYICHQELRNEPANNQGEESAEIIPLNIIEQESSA

| Binder | pEC50 (cAMP accumulation), 0% HSA (human amylin 3 receptor) [pEC50] | pEC50 (cAMP accumulation), 0.1% HSA (human amylin 3 receptor) [pEC50] | pEC50 (cAMP accumulation), 4% HSA (human amylin 3 receptor) [pEC50] | pEC50 (cAMP accumulation), 0% HSA [1] [pEC50] | pEC50 (cAMP accumulation), 0.1% HSA [1] [pEC50] | pEC50 (cAMP accumulation), 4% HSA [1] [pEC50] |
| --- | --- | --- | --- | --- | --- | --- |
| K([γGlu-γGlu-C20 diacid])CNTSTCATQRLANELHKSSNNFGPILPPTKVGSETY-NH2 (disulfide 2-7; N-terminus assumed; SMILES CC[C@H](C)[C@H](NC(=O)[C@@H]1CCCN1C(=O)CNC(=O)[C@H](Cc1ccccc1)NC(=O)[C@H](CC(N)=O)NC(=O)[C@H](CC(N)=O)NC(=O)[C@H](CO)NC(=O)[C@H](CO)NC(=O)[C@H](CCCCN)NC(=O)[C@H](Cc1c[nH]cn1)NC(=O)[C@H](CC(C)C)NC(=O)[C@H](CCC(=O)O)NC(=O)[C@H](CC(N)=O)NC(=O)[C@H](C)NC(=O)[C@H](CC(C)C)NC(=O)[C@H](CCCNC(=N)N)NC(=O)[C@H](CCC(N)=O)NC(=O)[C@@H](NC(=O)[C@H](C)NC(=O)[C@@H]1CSSC[C@H](NC(=O)[C@@H](N)CCCCNC(=O)CC[C@H](NC(=O)CC[C@H](NC(=O)CCCCCCCCCCCCCCCCCCC(=O)O)C(=O)O)C(=O)O)C(=O)N[C@@H](CC(N)=O)C(=O)N[C@@H]([C@@H](C)O)C(=O)N[C@@H](CO)C(=O)N[C@@H]([C@@H](C)O)C(=O)N1)[C@@H](C)O)C(=O)N[C@@H](CC(C)C)C(=O)N1CCC[C@H]1C(=O)N1CCC[C@H]1C(=O)N[C@H](C(=O)N[C@@H](CCCCN)C(=O)N[C@H](C(=O)NCC(=O)N[C@@H](CO)C(=O)N[C@@H](CCC(=O)O)C(=O)N[C@H](C(=O)N[C@@H](Cc1ccc(O)cc1)C(N)=O)[C@@H](C)O)C(C)C)[C@@H](C)O) [Compound A64] | 12 | 10.4 | 9.1 | 11.2 | 9 | 8.1 |
| SCNTSTCATQRLAN[dK]([γGlu-γGlu-dpeg″-C20 diacid])LHKSSNNFGPILPPTKVGSETY-NH2 (disulfide 2-7; N-terminus assumed; SMILES CC[C@H](C)[C@H](NC(=O)[C@@H]1CCCN1C(=O)CNC(=O)[C@H](Cc1ccccc1)NC(=O)[C@H](CC(N)=O)NC(=O)[C@H](CC(N)=O)NC(=O)[C@H](CO)NC(=O)[C@H](CO)NC(=O)[C@H](CCCCN)NC(=O)[C@H](Cc1c[nH]cn1)NC(=O)[C@H](CC(C)C)NC(=O)[C@@H](CCCCNC(=O)CC[C@H](NC(=O)CC[C@H](NC(=O)COCCOCNC(=O)CCCCCCCCCCCCCCCCCCC(=O)O)C(=O)O)C(=O)O)NC(=O)[C@H](CC(N)=O)NC(=O)[C@H](C)NC(=O)[C@H](CC(C)C)NC(=O)[C@H](CCCNC(=N)N)NC(=O)[C@H](CCC(N)=O)NC(=O)[C@@H](NC(=O)[C@H](C)NC(=O)[C@@H]1CSSC[C@H](NC(=O)[C@@H](N)CO)C(=O)N[C@@H](CC(N)=O)C(=O)N[C@@H]([C@@H](C)O)C(=O)N[C@@H](CO)C(=O)N[C@@H]([C@@H](C)O)C(=O)N1)[C@@H](C)O)C(=O)N[C@@H](CC(C)C)C(=O)N1CCC[C@H]1C(=O)N1CCC[C@H]1C(=O)N[C@H](C(=O)N[C@@H](CCCCN)C(=O)N[C@H](C(=O)NCC(=O)N[C@@H](CO)C(=O)N[C@@H](CCC(=O)O)C(=O)N[C@H](C(=O)N[C@@H](Cc1ccc(O)cc1)C(N)=O)[C@@H](C)O)C(C)C)[C@@H](C)O) [Compound A96] | 11.7 | 9.7 | 8.5 | 10.8 | 8.5 | 8 |
| SCNTSTCATQRLANE[dK]([γGlu-γGlu-γGlu-Stearoyl])HKSSNNFGPILPPTKVGSETY-NH2 (disulfide 2-7; N-terminus assumed; SMILES CCCCCCCCCCCCCCCCCC(=O)N[C@@H](CCC(=O)N[C@@H](CCC(=O)N[C@@H](CCC(=O)NCCCC[C@@H](NC(=O)[C@H](CCC(=O)O)NC(=O)[C@H](CC(N)=O)NC(=O)[C@H](C)NC(=O)[C@H](CC(C)C)NC(=O)[C@H](CCCNC(=N)N)NC(=O)[C@H](CCC(N)=O)NC(=O)[C@@H](NC(=O)[C@H](C)NC(=O)[C@@H]1CSSC[C@H](NC(=O)[C@@H](N)CO)C(=O)N[C@@H](CC(N)=O)C(=O)N[C@@H]([C@@H](C)O)C(=O)N[C@@H](CO)C(=O)N[C@@H]([C@@H](C)O)C(=O)N1)[C@@H](C)O)C(=O)N[C@@H](Cc1c[nH]cn1)C(=O)N[C@@H](CCCCN)C(=O)N[C@@H](CO)C(=O)N[C@@H](CO)C(=O)N[C@@H](CC(N)=O)C(=O)N[C@@H](CC(N)=O)C(=O)N[C@@H](Cc1ccccc1)C(=O)NCC(=O)N1CCC[C@H]1C(=O)N[C@H](C(=O)N[C@@H](CC(C)C)C(=O)N1CCC[C@H]1C(=O)N1CCC[C@H]1C(=O)N[C@H](C(=O)N[C@@H](CCCCN)C(=O)N[C@H](C(=O)NCC(=O)N[C@@H](CO)C(=O)N[C@@H](CCC(=O)O)C(=O)N[C@H](C(=O)N[C@@H](Cc1ccc(O)cc1)C(N)=O)[C@@H](C)O)C(C)C)[C@@H](C)O)[C@@H](C)CC)C(=O)O)C(=O)O)C(=O)O) [Compound A13] | 12.4 | 11.4 | 10.1 | 11.6 | 10.3 | 8.5 |
| K([γGlu-γGlu-C18 diacid])CNTSTCATQRLANELHKSSNNFGPILPPTKVGSETY-NH2 (disulfide 2-7; N-terminus assumed; SMILES CC[C@H](C)[C@H](NC(=O)[C@@H]1CCCN1C(=O)CNC(=O)[C@H](Cc1ccccc1)NC(=O)[C@H](CC(N)=O)NC(=O)[C@H](CC(N)=O)NC(=O)[C@H](CO)NC(=O)[C@H](CO)NC(=O)[C@H](CCCCN)NC(=O)[C@H](Cc1c[nH]cn1)NC(=O)[C@H](CC(C)C)NC(=O)[C@H](CCC(=O)O)NC(=O)[C@H](CC(N)=O)NC(=O)[C@H](C)NC(=O)[C@H](CC(C)C)NC(=O)[C@H](CCCNC(=N)N)NC(=O)[C@H](CCC(N)=O)NC(=O)[C@@H](NC(=O)[C@H](C)NC(=O)[C@@H]1CSSC[C@H](NC(=O)[C@@H](N)CCCCNC(=O)CC[C@H](NC(=O)CC[C@H](NC(=O)CCCCCCCCCCCCCCCCC(=O)O)C(=O)O)C(=O)O)C(=O)N[C@@H](CC(N)=O)C(=O)N[C@@H]([C@@H](C)O)C(=O)N[C@@H](CO)C(=O)N[C@@H]([C@@H](C)O)C(=O)N1)[C@@H](C)O)C(=O)N[C@@H](CC(C)C)C(=O)N1CCC[C@H]1C(=O)N1CCC[C@H]1C(=O)N[C@H](C(=O)N[C@@H](CCCCN)C(=O)N[C@H](C(=O)NCC(=O)N[C@@H](CO)C(=O)N[C@@H](CCC(=O)O)C(=O)N[C@H](C(=O)N[C@@H](Cc1ccc(O)cc1)C(N)=O)[C@@H](C)O)C(C)C)[C@@H](C)O) [Compound A65] | 11.5 | 10.1 | 8.7 | 10.5 | 9 | 7.9 |
| SCNTSTCATQRLANEKHKSSNNFGPILPPTKVGSETY (L-Lys 16 acylated: K*(γGlu-dpeg-dpeg-(γGlu)4-CO(CH2)14CH3); disulfide bridge Cys2-Cys7; C-terminal amide) [Compound A5] | 12.3 | 10.8 | 9.2 | 10.8 | 9.5 | 7.8 |

More lines, now with the values ahead:

| pEC50 (cAMP accumulation), 0% HSA (human amylin 3 receptor) [pEC50] | pEC50 (cAMP accumulation), 0.1% HSA (human amylin 3 receptor) [pEC50] | pEC50 (cAMP accumulation), 4% HSA (human amylin 3 receptor) [pEC50] | pEC50 (cAMP accumulation), 0% HSA [1] [pEC50] | pEC50 (cAMP accumulation), 0.1% HSA [1] [pEC50] | pEC50 (cAMP accumulation), 4% HSA [1] [pEC50] | Binder |
| --- | --- | --- | --- | --- | --- | --- |
| 11.1 | 8.8 | 7.6 | 10.5 | 8.1 | 7.1 | SCNTSTCATQRLAN[dK]([γGlu-γGlu-dpeg″-γGlu-C20 diacid])LHKSSNNFGPILPPTKVGSETY-NH2 (disulfide 2-7) [Compound A100] |
| 11.6 | 9.3 | 8 | 10.9 | 8.5 | 7.5 | K([γGlu-γGlu-dpeg″-dpeg″-γGlu-C20 diacid])CNTSTCATQRLANELHKSSNNFGPILPPTKVGSETY-NH2 (disulfide 2-7) [Compound A112] |
